Experimental data reported in patent US9962427B2, “Treatment of right ventricular dysfunction due to pressure overload” (OTTAWA HOSPITAL RESEARCH INSTITUTE, priority 2016, dated 2018).

Columns and labels:
Fischer CDF rats = test: SU5416/hypoxia model of severe pulmonary hypertension, weekly echocardiography and hemodynamics; type: in vivo, rat
Method: FIGS. 5A and 5B. Human Cardiotrophin-1 (hCT1) improves RV adaptation to severe Pulmonary Hypertension (PH) in Fischer rats.
Given that CT-1 induces phenotypic characteristics associated with beneficial RV physiologic adaptive compensation, a prediction was made by the Applicants that CT-1 would enhance RV adaptation to increased afterload in a disease setting. This supposition was tested to examine whether CT-1 protein can improve the ability of the RV to functionally adapt and limit or reduce right heart failure that is associated with pulmonary arterial hypertension (PAH), a form of PH caused by abnormalities in the lung vasculature (FIGS. 5A and 5B). PAH has a highly tractable and reproducible rodent equivalent, the […]/hypoxia rat model, which recapitulates many key aspects of the disease including progressive right heart failure in the Fischer CDF™ rat strain, a feature that is not observed in the Sprague Dawley strain in the same model of PH. Use of this PH model offers a clear advantage in providing an accurate preclinical disease setting to test the utility of CT-1, rather than simply testing co-administration of CT-1 with general […] stimulants such as PE or ISO in vivo. […] Also, right heart failure drives symptoms and prognosis in many forms of PH, including in Group 2 PH caused by increases in left ventricular filling pressures, of which heart failure with preserved ejection fraction (HFpEF) is an important example which is increasingly recognized as one of the greatest therapeutic challenges in clinical cardiology today. PH was induced by administering a single subcutaneous injection of SU5416 (20 mg/kg) to Fischer CDF™ rats followed by exposure to chronic hypoxia (8-10% O2) for 3 weeks. After these 3 weeks, rats were recovered for 24 hours in normoxia before implantation of PBS filled (control) or hCT-1 filled (6 μg/kg/hr delivery) osmotic minipumps. Control rats were exposed to normoxic conditions throughout the study and only treated with PBS (FIG. 5A). Echocardiography analyses were conducted weekly and the following parameters were measured: Right Ventricle Posterior Wall thickness (RVPW), Ratio of Right Ventricle Internal Diameter to Left Ventricle Internal (RVID/LVID), Pulmonary Artery Acceleration Time (PAAT), Fractional Area Change (FAC), and Cardiac Output (CO). At 3 weeks (prior to pump implantation), there was already a marked and significant increase in the RVID/LVID ratio, indicative of developing RV failure in this model of severe PH. In PH animals receiving saline, there was a progressive increase in this ratio over the subsequent 3 weeks, associated with other evidence of progressive RV failure, such as worsening contractile function (Fractional Area Shortening) and reductions in cardiac output.

rats = test: M-mode ECHO after 2 weeks of osmotic minipump delivery in rats; type: in vivo, rat; details: hCT1 6 μg/kg/hr
Method: FIGS. 3A, 3B, and 3C. […] Arrows (in upper panels) point to myocardial wall (RVLW). Dotted lines (in lower panels) show inner ventricle chambers.
CT-1 was tested in vivo to determine whether its administration would induce a myocardial adaptive remodeling characteristic of physiologic compensation (FIGS. 3A, 3B, and 3C). Osmotic minipumps containing PBS control (Ctrl) or hCT1 (6 μg/kg/hr) or Isoproterenol (ISO, 1 mg/kg/day) were implanted subcutaneously in rats. ISO is a beta-adrenergic receptor agonist and continuous infusion with ISO in rats is known to induce pathological cardiac hypertrophy and cardiomyocyte damage (in both the right and left ventricles) which progresses to heart failure (Morisco et al (2001) J Mol Cell Cardiol 33:561-573 and Grimm et al (1998) Cardiovascular Research 37:91-100). After 2 weeks of treatment, M-mode ECHO analysis was used to assess myocardial structure/function (FIG. 3A). In this model, an increased right ventricle lateral wall (RVLW) thickness indicates the presence of myocardiocytes growth, and an increased ratio of the right to left ventricle internal diameters (RVID/LVID) is an indicator of pathologic hypertrophy. An increased RVLW thickness but constant or reduced RVID:LVID ratio is an indicator of adaptive compensatory RV remodeling. Both hCT1 and ISO induced a significant increase in RVLW thickness (12% and 32% fold increase, respectively) compared to control rats (n=3; * and **, P<0.05). […] An in vivo growth reversal analysis was also conducted. Following a 2 week delivery of CT-1 protein (6 μg/kg/hr) or PE (10 mg/kg/day) as the pathologic control in this case, animals were then assessed for cardiac structure/function at a 6 week follow-on period. […] Collectively, these studies support the contention that CT-1 elicits a reversible physiologic cardiac adaptive compensation.

primary cardiomyocytes = test: Microarray gene expression analysis of primary cardiomyocytes (Affymetrix Rat gene 2.0ST array); type: cell-based; details: 0.5 nM, 24 hours, versus non-stimulated
Method: FIGS. 8A and 8B. […] FIG. 8B Microarray analysis of primary cardiomyocytes stimulated with hCT1 (0.5 nM) for 24 hours.
Applicant explored the role of CT-1 as a pro-angiogenic factor in the adaptive hypertrophic response. Physiologic cardiac adaptive compensation is associated with an increase in capillary density, whereas pathologic response is characterized by a decline or no change at all. Importantly, the compensatory vascular growth/angiogenesis that occurs during physiologic adaptive compensation is permissive for the increased workload that accompanies physiologic adaptive compensation. Despite this adaptation, little information exists regarding the mechanisms that match the demand for angiogenesis to the beneficial form of myocardial growth. The rapid in vitro and in vivo adaptive compensation in response to CT-1 supports a hypothesis that the cardiomyocyte itself may act in a paracrine fashion, to signal and promote angiogenesis. To address this conjecture, Applicant examined whether CT-1 treated primary cardiomyocytes produced vascular endothelial growth factor (VEGF), an angiogenic factor known to be produced and secreted by cardiomyocytes. Primary cardiomyocytes were incubated with control serum-free media (Ctrl, SF media) or stimulated with hCT1 (0.5 nM), PE (100 μM), or PAC-1 (25 μM) for 24 hours. […]

[1] = hCT-1 6 μg/kg/hr minipump from week 3
[2] = hCT-1 6 μg/kg/hr minipump from week 3, over 3 weeks

B1: hCT1: Recombinant human CT1 protein; 201 amino acid sequence, GenBank Accession Nos AAD12173 and AAA85229 (human) (protein, UniProt Q16619 1-201, looked up)
Cardiotrophin-1: MSRREGSLEDPQTDSSVSLLPHLEAKIRQTHSLAHLLTKYAEQLLQEYVQLQGDPFGLPSFSPPRLPVAGLSAPAPSHAGLPVHERLRLDAAALAALPPLLDAVCRRQAELNPRAPRLLRRLEDAARQARALGAAVEALLAALGAANRGPRAEPPAATASAASATGVFPAKVLGLRVCGLYREWLSRTEGDLGQLLPGGSA
Q: How did the “RV afterload (right ventricular systolic pressure, RVSP)” value (Fischer CDF rats; [1]) turn out when B1 was run?
A: Its value is “without any alteration in the RV afterload”.

Q: What about the “right atrial pressure (RAP)” value (Fischer CDF rats; [1]) of the same molecule?
A: Its value is “significant decrease in right atrial pressure”.

Q: And the RVID/LVID ratio (Fischer CDF rats; [2])?
A: Its RVID/LVID ratio is “progressive improvement in the RVID/LVID ratio”.

Q: What about the cardiac output (Fischer CDF rats; [2]) of the same molecule?
A: Its cardiac output is “improvements”.

Q: And the contractile function (Fischer CDF rats; [2])?
A: Its contractile function is “improvements in contractile function”.

Q: What about the “RVID/LVID ratio, in words” value (rats) of the same molecule?
A: Its value is “did not develop this pathologic state of cardiac hypertrophy”.

Q: What about the “increase in RVLW thickness compared to control rats” value (rats; ISO 1 mg/kg/day, subcutaneous minipump) of the same molecule?
A: Its value is 12 % fold increase.

Q: And the “VEGF increase (microarray)” value (primary cardiomyocytes)?
A: The value was 1.3 fold.

Q: What about the “angiogenic and endothelial factors (Angpt14, Flt4, Vwa5a) expression” value (primary cardiomyocytes) of the same molecule?
A: Its value is “robust induction”.
